This note sets out measurements from the supplement of paper PMC10126150.

± gives the standard deviation of the averaged measurements.
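Note: ATP exposure 15 min at 22 °C before imaging.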

The subject of the data set is ATP. Nature of the data set: switch fluorescence ratio, 500 uM ATP over buffer (Cy3 cluster intensity, sum of 5 cycles each) (fold (ratio)); higher = stronger signal-on switching upon ATP binding; sequences stand for … in TCGTCGGCAGCGTCAGATGTGTATAAGAGACAGTTTTTTTTTTTTTTTTTTTTTTTTT…TC. The settings on record: aptamer strand: ATP DNA aptamer (quencher-CACCTGGGGGAGTATTGCGGAGGAAGG + anchor), 100 nM annealed; ATP concentration: 500 uM. In a few lines: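 Five buffer/ATP imaging cycles were run on Cy3-labelled switching-strand clusters on a modified Illumina MiSeq flow-cell, with NaOH stripping and re-annealing between cycles. In each cycle, clusters annealed to 100 nM quencher-labelled ATP aptamer were imaged in selection buffer, then after 15 min with 500 uM ATP at 22 °C. Per cluster, the fluorescence ratio is summed target-cycle over summed buffer-cycle Cy3 intensity, averaged per switch-domain sequence. Only clusters within 100-1000 RFU were kept.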
Consider CACGGGGTTG, for which the switch fluorescence ratio was 0.982 ± 0.069.

TTGGTTGGGT: the switch fluorescence ratio is 0.997 ± 0.041.

Regarding GGAGATAGGT, the switch fluorescence ratio is 1.04 ± 0.038.

On to TCGGAAGTCA, for which the switch fluorescence ratio came out at 1.012 ± 0.0042.

Regarding TTTGGTTGAA, the switch fluorescence ratio was 1.03 ± 0.088.

Turning to ACTTGTGACA, the switch fluorescence ratio was 1.12 ± 0.18.

As for GGGGGAGGGG, the switch fluorescence ratio came to 1 ± 0.043.

Regarding GGCGGCGCGT, the switch fluorescence ratio was determined as 1.04 ± 0.019.

Consider AATATTTGG, for which the switch fluorescence ratio came out at 1.008 ± 0.0091.

For the sequence AAAATGGTGT, the switch fluorescence ratio was 1.002 ± 0.0083.

Take ACCAGGGGAG: the switch fluorescence ratio was 1.26 ± 0.066.

Take CAATGGCCTG: the switch fluorescence ratio is 0.984 ± 0.013.

On to CGGATCGACT, for which the switch fluorescence ratio turned out to be 0.977 ± 0.02.

In the case of TATGTTGTTT, the switch fluorescence ratio is 1.04 ± 0.023.

Turning to TGCAATATTT, the switch fluorescence ratio amounted to 1.31 ± 0.02.

As to ATGTGTGAGG, the switch fluorescence ratio was determined as 1.01 ± 0.014.

Take TACGGCGGAA: the switch fluorescence ratio is 1.02 ± 0.047.

Turning to ATGGGCCCGT, the switch fluorescence ratio stood at 1.01 ± 0.1.

As to CATGTTGCTG, the switch fluorescence ratio amounted to 1.09 ± 0.029.

Consider TGAAATATGT, for which the switch fluorescence ratio came to 0.987 ± 0.04.

As to CCAGGACGTA, the switch fluorescence ratio was 1.02 ± 0.027.

Regarding GGGAAAATTA, the switch fluorescence ratio was found to be 0.997 ± 0.019.

Take GAGATCGAGG: the switch fluorescence ratio amounted to 1.03 ± 0.017.

Regarding AATTGCACGG, the switch fluorescence ratio is 1.04 ± 0.016.

For the sequence CTAAGGTTGG, the switch fluorescence ratio turned out to be 0.974 ± 0.034.

For GAGGGGGTGC, the switch fluorescence ratio came to 1.04 ± 0.069.

As to CAGTATGGTA, the switch fluorescence ratio was determined as 1 ± 0.012.

Turning to ATGAGGGTTC, the switch fluorescence ratio was 0.981 ± 0.044.

On to GTAGAAAGTA, for which the switch fluorescence ratio was 0.973 ± 0.031.

As for GTTAACTCGG, the switch fluorescence ratio is 0.985 ± 0.047.

On to TTTACGGCTT, for which the switch fluorescence ratio worked out at 1.05 ± 0.078.

Consider GTTTAAATTA, for which the switch fluorescence ratio turned out to be 1.02 ± 0.018.

With GGGCAGGCTT, the switch fluorescence ratio came out at 0.98 ± 0.017.

TAGCTCCGGG: the switch fluorescence ratio was 1.055 ± 0.0063.

As for ATTATGCTAT, the switch fluorescence ratio amounted to 1.052 ± 0.0094.

With TTGCAGGGTG, the switch fluorescence ratio came to 1.17 ± 0.035.

With AAGCAGGGGT, the switch fluorescence ratio was determined as 0.982 ± 0.074.

For the sequence AGGCACGTGT, the switch fluorescence ratio was determined as 1.02 ± 0.015.

With ATGGTCTTAT, the switch fluorescence ratio is 0.997 ± 0.014.

Take GTTTAGCTGT: the switch fluorescence ratio stood at 0.9948 ± 0.0021.

In the case of ATTTTGTTTG, the switch fluorescence ratio stood at 0.994 ± 0.012.

On to AATGATCCAG, for which the switch fluorescence ratio turned out to be 0.983 ± 0.032.

On to AGTTGGAGGC, for which the switch fluorescence ratio turned out to be 0.9476 ± 0.0088.

Regarding TTATTGACGA, the switch fluorescence ratio worked out at 0.992 ± 0.021.

As to TTTGAAAGAA, the switch fluorescence ratio amounted to 0.9779 ± 0.0054.

As to TCGTTTATTT, the switch fluorescence ratio was 1.02 ± 0.014.

With CGGGAGCCCA, the switch fluorescence ratio was found to be 1.02 ± 0.044.

With TCTCGGAAGA, the switch fluorescence ratio stood at 1.01 ± 0.022.

As for TTTATGTTGG, the switch fluorescence ratio stood at 0.979 ± 0.036.

Regarding CGGAATGTAT, the switch fluorescence ratio amounted to 0.992 ± 0.04.

As to TATGGGAGGC, the switch fluorescence ratio came to 1.01 ± 0.059.

Take CGGAGGGGCG: the switch fluorescence ratio was 0.963 ± 0.06.

As for ATGGTGTTGC, the switch fluorescence ratio was found to be 0.964 ± 0.028.

On to AGCGTTGAAG, for which the switch fluorescence ratio turned out to be 0.997 ± 0.022.

For ATCGGAGGCA, the switch fluorescence ratio came out at 1.0107 ± 0.00084.

As for CAGGTCCGGG, the switch fluorescence ratio was 1.02 ± 0.018.

Take ACATAGGCGG: the switch fluorescence ratio is 1.022 ± 0.0083.

On to GAAGTCCAGA, for which the switch fluorescence ratio was 1.01 ± 0.07.

Consider ATTTTAGATC, for which the switch fluorescence ratio was found to be 1.01 ± 0.034.

CGTACTGTGG: the switch fluorescence ratio came out at 0.9977 ± 0.0099.

Regarding CATTTGAGTG, the switch fluorescence ratio is 1 ± 0.042.

Turning to TCAATCAGAG, the switch fluorescence ratio was determined as 1.01 ± 0.0045.

Regarding CGTGAAAGTA, the switch fluorescence ratio was 0.996 ± 0.049.

Consider TTTTTTGTCG, for which the switch fluorescence ratio worked out at 0.993 ± 0.053.

Take AGTGGGAATC: the switch fluorescence ratio stood at 0.989 ± 0.032.

As to ACGTCGTAGG, the switch fluorescence ratio was determined as 1.05 ± 0.016.
